The source of these data is ChEMBL document CHEMBL3769311, “The natural flavone fukugetin as a mixed-type inhibitor for human tissue kallikreins” (Bioorg Med Chem Lett, 2016).

Substrate in data set [1]: O=C1CC(c2ccc(O)c(O)c2)Oc2c1c(O)cc(O)c2[C@@H]1C(=O)c2c(O)cc(O)cc2O[C@H]1c1ccc(O)cc1
The note with it: Homo sapiens; 8 uM.

Substrate in data set [2]: O=C1CC(c2ccc(O)c(O)c2)Oc2c1c(O)cc(O)c2[C@@H]1C(=O)c2c(O)cc(O)cc2O[C@H]1c1ccc(O)cc1
The following applies: Homo sapiens; 10 uM.
Description: Mixed-type inhibition of human tissue kallikrein-2 expressed in baculovirus infected insect cells using Abz-KLRSSQ-EDDnp as substrate assessed as substrate Km at 10 uM by Lineweaver-Burk plot analysis

Substrate in data set [3]: O=C1CC(c2ccc(O)c(O)c2)Oc2c1c(O)cc(O)c2[C@@H]1C(=O)c2c(O)cc(O)cc2O[C@H]1c1ccc(O)cc1
The following applies: Homo sapiens; 8 uM. This is another data set of the same source.
Description: Mixed-type inhibition of human tissue kallikrein-2 expressed in baculovirus infected insect cells using Abz-KLRSSQ-EDDnp as substrate assessed as substrate Km at 8 uM by Lineweaver-Burk plot analysis

Substrate in data set [4]: O=C1CC(c2ccc(O)c(O)c2)Oc2c1c(O)cc(O)c2[C@@H]1C(=O)c2c(O)cc(O)cc2O[C@H]1c1ccc(O)cc1
The note with it: Homo sapiens; 2 uM.
Description: Mixed-type inhibition of human tissue kallikrein-2 expressed in baculovirus infected insect cells using Abz-KLRSSQ-EDDnp as substrate assessed as substrate Km at 2 uM by Lineweaver-Burk plot analysis

Substrate in data set [5]: O=C1CC(c2ccc(O)c(O)c2)Oc2c1c(O)cc(O)c2[C@@H]1C(=O)c2c(O)cc(O)cc2O[C@H]1c1ccc(O)cc1
The following applies: Homo sapiens; 2 uM. This is another data set of the same source.

Substrate in data set [6]: O=C1CC(c2ccc(O)c(O)c2)Oc2c1c(O)cc(O)c2[C@@H]1C(=O)c2c(O)cc(O)cc2O[C@H]1c1ccc(O)cc1
The note with it: Homo sapiens; 4 uM.
Description: Mixed-type inhibition of human tissue kallikrein-2 expressed in baculovirus infected insect cells using Abz-KLRSSQ-EDDnp as substrate assessed as substrate Km at 4 uM by Lineweaver-Burk plot analysis

Substrate in data set [7]: O=C1CC(c2ccc(O)c(O)c2)Oc2c1c(O)cc(O)c2[C@@H]1C(=O)c2c(O)cc(O)cc2O[C@H]1c1ccc(O)cc1
The following applies: Homo sapiens; 4 uM. The source holds these as a separate data set.

Substrate in data set [8]: O=C1CC(c2ccc(O)c(O)c2)Oc2c1c(O)cc(O)c2[C@@H]1C(=O)c2c(O)cc(O)cc2O[C@H]1c1ccc(O)cc1
The note with it: Homo sapiens; 10 uM. The source holds these as a separate data set.

B1: Kallikrein-2 (Homo sapiens), P20151 (protein)
chain: MWDLVLSIALSVGCTGAVPLIQSRIVGGWECEKHSQPWQVAVYSHGWAHCGGVLVHPQWVLTAAHCLKKNSQVWLGRHNLFEPEDTGQRVPVSHSFPHPLYNMSLLKHQSLRPDEDSSHDLMLLRLSEPAKITDVVKVLGLPTQEPALGTTCYASGWGSIEPEEFLRPRSLQCVSLHLLSNDMCARAYSEKVTEFMLCAGLWTGGKDTCGGDSGGPLVCNGVLQGITSWGPEPCALPEKPAVYTKVVHYRKWIKDTIAANP
As usually defined, the Vmax is the rate approached at saturating substrate. As usually defined, the Km is the concentration of substrate that gives half-maximal velocity. B1: the Vmax in data set [1] came to 110 µM/s; in data set [5], 192 µM/s; in data set [7] it was 144 µM/s; in data set [8] it was 79 µM/s. Further, the Km was determined as 1.2 µM in data set [2], 1.04 µM in data set [3], 0.72 µM in data set [4] and 0.81 µM in data set [6].
